Assay: yeast display, Sf9 membrane polyspecificity reagent, FACS + sequencing; frameworks hold sequencing errors
Summary of the method: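 Sorting gates, low and high (top ~1%), were placed on anti-HA fluorescence to track expression and on streptavidin fluorescence to track reagent binding. A clone's polyreactivity label is taken from the gate it came out of. The reagent was 10% biotinylated, detergent-solubilized Sf9 membrane, applied for 1 hour at 4 °C to galactose-induced yeast display cells.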

| Sequence | polyreactivity (PSR sort gate) |
| --- | --- |
| QLQLEESGGGLVQAGGSLSLRCAASGRIFSRYPMGWYRQAPGKERELVAAISSRAGSTYYADSVKGRFTISRDNAKNTVYLQMNSLKPEDTAVYYCNNPSYSCSSPYDHWGQGTQVTVSS | high polyreactivity |
| QVQIVESGGGLVQAGGSLRLSCAASGRTFYYNAMGWYRQAPGKERELVAAITWSGGGTYYADSVKGRFTISRDNAKNTVYLQMNSLKPEDTAVYYCAKTPGWTDYDYWGQGTQVTVSS | high polyreactivity |
| QVQLVESGGGLVQAGGSLRLSCAASGSIISFNTMGWYRQPPGKEREFVASIRRRGGSTYYADSVKGRFTISRDNAKNTVYLQMNSLKPEDTAVYYCAKANPHYVISDGVYHPRGGYWGQGTQVTVSS | low polyreactivity |
| QVQLVDSGGGLVQAGGSLRLSCADSGRIFVGYAMGWYTQAPGKDRELVAAINRTGSSTYYADSVKGRFTISRDNAKTTVYLQMNSLKPEDTAVYYCNARSGNRYGPRYDYWGQGTQVTVSS | high polyreactivity |
| QVQLVESGGGLVQAGGSLRLSCAASGIIFYLYTMGWYRQAPGKERELVAAISKSGARTYYADSVKGRFTISRDNAKNTVYLQMNSLKPEDTAVYYCAADVSVSGYYYWGQGTQVTVSS | high polyreactivity |
| QVQLVESGGGLVQAGGSLRLSCAASGNILRFNAMGWYRQAPGKERELVAAISRSGGTTYYADSVKGRFTISRDNAKNTVYLQMNSLKPEDTAVYYCAARSRYGESPGYYWGQGTQVTVSS | high polyreactivity |
| QVQLVESGGGLVQAGGSLRLSCAASGRTFRYYAMGWYRQAPGKERELVAAISWSGVRTYYADSVKGRFTISRDNSKNTVYLQMNSLKPEDTAVYYCAKGGYWGQGTQVTVSS | high polyreactivity |
| QVQLVESGGGLVQAGGSLRLSCAASGIIFYYNAMGWYREAPGKEREFVASISSRGGSTYYADSVKGRFTISRDNSKNTVYLQMNSVKPEDTAVYYCAAAFDWRRQRYNYWGQGTQVTVTS | high polyreactivity |
| QVQLVESGGGLVQAGGSRRLTCAASGSTFTQYPMGWYRQAPGKERELVAGISWGGSSTYYADSVKGRFTISRDNAKNTVYLEMNSLKPEDSEVYYCASAVWREYGYYFVYWDYSWGQGTQGTVSS | low polyreactivity |
| QVQLVESGGGLVQAGGSLRLSCAASGRIFDYNTMGWYRQAPGKERELVAAITGGTGSTYYADSVKGRFTISRDNAKNTVYLHMNSLKPEDTAVYYCAAGFHKRVTPEILYDFWGQGTQVTVSS | low polyreactivity |
| QVQLVESGGGLVQAGGSLRLSCAAYGSTFIAYAMGWYRQAPGKERELVAAITRGGSTNYADSVKGRFTISRDNAKNTVYLQMNRLKPEDTAVYYCAADRSWGYWGRSRYDYWGQGTQVTVSS | high polyreactivity |
| QVQLEESGGGLVQAGGSLRLSCAASGSTFDFNAMGWYRQVPGKERELVAAITSGGSTNYADSVKGRFTISRDNAKNTVYLQMNSLKPEDTAVYYCAARPARGDSQGGYVRPWCYDSWGQGTQVTGSS | low polyreactivity |
| QVQLVESGGGLVQEGGSLRIICAASGFTFYRYARGWYRQEPGKERELVAAISSHGDRTYYSDSVKGRFTISRDNAKNTVYLQMNSLKPEDTAVYFCNVETLYGYFLHFYLRYYHWGQGTQVTVSS | high polyreactivity |
| QVQLVESGVGLVQAGVSLRLSSAASGSIFRLYTMGWYRQATGKERELVAAITWSGGRTYYADSVKGRFTISRDNAKNTVYLQMNSLKPEDTAVYYCAADNWYSTYDYWGRGTQVTVSS | high polyreactivity |
| QVQLVESGGGLVQAGGSLRLSCAASGFTFRSNAMGWSRQAPGKERELVAAISYSGGDTYYADSVKGRFTISRDNAKNTVYLQMNSLKPEDTAVYYCAADDPASPLGEYWGQGTQVSVSS | low polyreactivity |
| QVQLEDSGGGLVQAGGSLRLSCAASGSTWVYAMGWYRQAPGTERELVASITVSGGSTYYADSVKGRFTISRDNAKNTVYLQMNSLKPEDTAVYYCAAYDSYRKFKYWRQGTQVTVSS | high polyreactivity |
| QVQLVESGGGLVQAGGSLRVSCAASGFTFALYAMGWYRQAPGKERELVAAISWSGGTTYYADSVKGRFTISRDNEKNTVDLQMNSLNPEDTAVYYCNAYTRSRGYDYWGQGTQVTVSS | high polyreactivity |
| QVQIVESGGGLVQAGGSLRLSCAASGSIFTYYAMGWYRQAPGKERELVAAINWSGGSTYYADSVKGRFTISRDNAKNTVYLQMNSLKPEDTAVYYCATDYYARRHSPRYDYWGQGTQLTVSS | low polyreactivity |
| QVQLVESGGGLVQAGGSLRLSCAASGSILVGNAMGWYRQAPGIERELVAGSSESDGSTNYADSGKGRFTISRDKSKNTVYLPMNSLKPEETAVYYRAADIWTSGDIPYDYWGQGTQVTVSS | low polyreactivity |
| QVQLVESGGGLVQAGGSLRLSCDASGRSSVSMLMVWYRQAPGKERELVARITGSGGSTYYADSVKGRFTISRDNAKNTVYLQMNSLKPEDTAVYYCAARYLWRGRYNYWGQGTQVTVSS | high polyreactivity |
| QVQRVESGGGLVQAGGSLRLSCAASGRTFAYYVMGWYRQAPGKERELVAAISWSAGSTYYADSVKGRFTISRDNAKNTVYLQMNSLKPEDTAVYYCAADYRFRYEYWGQGTQVTVSS | low polyreactivity |
| QVQLVDSGGGVVQAGLSLRLSCAASGRTFPGYAIGWYRQAPGKEMELVASITSRGGITYYADSVKGRFTISRDNAKITVYLQLNSLKPEDSAVYYCATDFAVTKMEYWGQGSQVTVSS | low polyreactivity |

| Sequence | polyreactivity (PSR sort gate) |
| --- | --- |
| QVQLVESGGGLVQAGGSLRLSCAASGSIFDWNSMGWYRQAPGKERELVATISWDGGSTYYADSVKGRFTISLDNAKNTVYLQMNSLKPEDTAVYYCATVFTGKPAYYARTKYDYWGQGTQVTVSS | low polyreactivity |
| QVQLVESGGGLVQAGGSLRLSCAASGRTFHYNVMGWYRQAPGKESELVAASTNTGGSTYYADSVKGRFTISRDNAKNTVYLQMNSLKPEDTAVYYCAAVIWGRRYGAYPYEYWGQGTQVTVSS | low polyreactivity |
| QVQLVESGGGLVQAGGSLRLSCAASGLTFYYYAMGWYRQAPGKERELVAGISGSDGSTYYADSVKGRFTISRDNAKNTVYLQMNSLKPEDTAVYYCAAEYYYPWPLYYITDGIYDMYYWGQGTQVTVSS | low polyreactivity |
| QVQLVESGGGLVQAGGSLRLSCAASGYIFADNDMGWYRQAPGKERELVASIDWSGGSTYYADSVKGRFTISRDNAKNTVYLQMNSLKPEDTAVYYCNKGAFGGVSSYIYWAFYSGYDYWGLGTQVTVSS | low polyreactivity |
| QVQLVESGGGLVQAGGSLRLICAASGRIFYYYTMGWYRQAPGKERELVDTIRSGGSTYYADSVKGRFTISRDNAKNTVYLQMNSLKPEDTAVYYCAAAYRTGRGYGFDYWGQGTQVTVSS | high polyreactivity |
| QFQLLESGGGLVQAGGSLRLSCAASGSIFTRNAIGWYRQAPGSERELVAAITSAGSTSYADSVKGRFTISRDNAKNTVYLQMNSQKPEDTAVYYCNTVPGRYRTFDYWGQGTQVTVSS | high polyreactivity |
| QVQLVESGGGLVQAGGSLRLSCAASGSIFLRYAMGWYRQAPGKERELVAAITSSGGSTYYADSVKGRFTISRDNAKNTLYLQMNSLKPEDTAVYYCNRYSYLFPYYWKYDYWGQGTQVTVSS | high polyreactivity |
| QVQLVESGGGLVQAGGSLRLSCAASGFTFPYNAMGWYRQAPVTERELVAAMSRGGGRTYYADSVKGRFTISRDNAKNTVNLQMNSLKPEDTAVYYCAKSPGQDTPYPYGYWGQGTQETVSS | high polyreactivity |
| QVQLVESGGGLVQAGGSLRLSCAASGLTFNDYAMGWYRQAPGKERELVAAISDIGGGTYYADSVKGRFTISRDNAKNTVYLQMNSLKPEETAVYYCAAEWQDWYGVDSWGQGTQVTVSS | low polyreactivity |
| QVQLVESGGGLVQAGGSLRLSCAASGSTFGWYAMGWYRQAPGKERELVATISTTGGRTYYADSVKGRFTISRDNAKNTVYLQMNSLKPEDTAVYYCAARAFYKRYFAFDYWGQGTQVTVSS | high polyreactivity |
| QVQLVESGGGLVQAGGSLRLSCDASGSIFGSYVMGWSRQAPGKERELVAAISSSGASTYYADSVKGRFTISRDNAKNTVYLQMNSLKPEDTAVYYCATTRRPYVRGYPHYYWGQGTQVTVSS | high polyreactivity |
| QVQLVESGGGLVQAGGSLRLSCAASGFTFWFNAMGWYRQSRGTERELVPTIRRSGGTTYYADSVKGRFTISRDKAKNTVYLQMNSLKPEDTAVYYCAADDYYYPGTVYYFTPGYNYWGQGTQVTVSS | low polyreactivity |
| LVQLEDSGGGLVQGGGSLRLSCAASGRIFSANAMGCYRQATGKERELVASISTGGGRTYYADSVKGRFTISRDNAKNTVYLQMISLKPEDTAVYYCNAILRPFRVRGTYGTYGYDYWGQGTQVTVSS | high polyreactivity |
| QVQLVESGGGLVQAGGSLRLSCAPSGRTFVDYDMGWYRQAPGKERELVADINSGGSTYYADSVKGRFTISRDNAKNTVYLQMNSLKPEDTAVYYCAARYTFDRWKFGYWGQGTQVTVSS | high polyreactivity |
| QVQLVESGGGLVQAGGSLRLSCAASGSTFWVYGMGWSRQAPGKERELVADITSIGGSTYYADSVKGRFTISRDNAKNTVYLQMNSLKPEDTAVYYCAARETWYPYYWMGYWGQGTQVTVSS | high polyreactivity |
| QVQLGDSGGGLVQAGGSLRLSCAASGRIFGVYAMGWYRQAPGKERELVAAISRNGGSTYYADSVKGRFTISRDNAKNTVYLQMNSLKPEDTAVYYCATGGGVEAAGAYWGQGTQVTVSS | low polyreactivity |
| QVQLVESGGGLVQAGGSHRLSCAASGSIFALYAMGWYREAPGKEREFVAAISWNGGRTYYADSVKGRFTISRDNAKNTVYLQMNSLKPEDTAVYYCAARSWYAYDYWGQGTQVTVSS | high polyreactivity |
| QVQLVESGGGLGQAGGSLRLSCAASGYTFARNAMGWYRQAPGKEREMVAAINWSGTNTYYADSVKGRFTISRDNAKNTVYLQMNSLKPEDTAVYYCAKDLYFSGYEFDYWGQGTQVTVSS | low polyreactivity |
| QVQLVESGGGLVQEGGILPLSCAASGRIFGTYAMGWYRQAPGKERELVAAISSSGTSTYYADSVKGRFTISRDNAKNTVYLPMNSLKPEDTAVYYCAARYPRTAYDYWGQCTQVTVSS | low polyreactivity |
| QVHLVESGGGLVQAGGSLRLSCAASGRNFGYNAMGWYRQAPRKEREFVASISSSGGLTYYSDSVKGRFTISRDNAKNTVYLQMNSLKPEDSAFYDCARQGYYLYSKYDYWGQGTQVTVSS | high polyreactivity |
| QVQLVESGGGLVQAGGSLRLSCAASGRTFGKNAMGWYRQAPGKEREFVAAITSRGGSTYYADSVKGRFTISRDNAKNTDYLQMNRLKPEDTAVYYCNREFKRQSQRTEHYYWGQGTQVTVSS | low polyreactivity |

Source: the nanobody polyreactivity screen of Harvey et al. (2022)
